Among the data in publication PMC6609482 are binding result and binding signal values, retold here.

Data set [1] addresses T1, HMCES SRAP domain (SRAPd) WT (Homo sapiens, UniProt Q96FZ2 2-270).
T1 sequence: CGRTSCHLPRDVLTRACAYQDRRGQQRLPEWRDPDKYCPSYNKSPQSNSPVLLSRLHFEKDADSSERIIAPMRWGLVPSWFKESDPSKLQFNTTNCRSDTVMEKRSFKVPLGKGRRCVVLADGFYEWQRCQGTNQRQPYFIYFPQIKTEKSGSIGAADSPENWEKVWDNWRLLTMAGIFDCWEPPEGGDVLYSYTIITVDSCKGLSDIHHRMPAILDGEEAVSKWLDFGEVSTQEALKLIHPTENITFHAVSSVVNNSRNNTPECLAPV
Nature of the data set: crystal structure.

In data set [2] the target is T1, HMCES SRAP domain (SRAPd) WT. In words: fluorescence polarization.
Data set [3] has the same target. Nature of the data set: crystal structure. The source holds these as a separate data set.

Read-outs that look alike come from different tables or passages of the source.

B1: DNA_3nt (3' overhang) (dsDNA)
DNA 1: CCAGACGTT
DNA 2: GTCTTG
Consider B1, for which the binding result in data set [1] is on record as “binds”.

B2: 3-nt gap DNA (dsDNA)
DNA 1: TCTTCTGGTCCGGATGGTAGTTAAGTGTTGAC
DNA 2: GGACCAGAAGA
DNA 3: GTCAACACTTAACTACCA
Regarding B2, the binding signal in data set [2] is ~7 fold higher affinity than dsDNA of same sequence.

B3: DNA_6nt (3' overhang) (dsDNA)
DNA 1: CCAGACGTTGTT
DNA 2: GTCTTG
Consider B3, for which, in data set [3], the binding result is “binds”.
